Test results taken from patent US20220363757A1 (SYMPHOGEN A S, published 2022).
Numbering of substitutions follows the chain as printed.

T1: human LAG-3 domain 1-2 Fc fusion, point mutation #60 P118A (human, UniProt P18627 23-266)
T1 construct: not shown: human IgG1 Fc, AA P101-K330
T1 sequence: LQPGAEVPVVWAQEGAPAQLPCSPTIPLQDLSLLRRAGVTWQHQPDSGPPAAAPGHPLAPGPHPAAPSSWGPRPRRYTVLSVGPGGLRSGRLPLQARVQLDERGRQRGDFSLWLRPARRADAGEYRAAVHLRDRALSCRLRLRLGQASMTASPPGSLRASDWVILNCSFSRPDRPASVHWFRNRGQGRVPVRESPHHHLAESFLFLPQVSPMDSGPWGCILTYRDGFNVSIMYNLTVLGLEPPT

T2: human LAG-3 domain 1-2 Fc fusion, chimeric construct #22 (mutated region AA 140-142) (human, UniProt P18627 23-266)
T2 construct: not shown: human IgG1 Fc, AA P101-K330
T2 chain: T1 sequence with A96P, R118T, A120K

T3: human LAG-3 domain 1-2 Fc fusion, chimeric construct #11 (mutated region AA 74-82) (human, UniProt P18627 23-266)
T3 construct: not shown: human IgG1 Fc, AA P101-K330
T3 chain: T1 sequence with A52S, A53I, G55A, H56L, P57D, A59L, P60Q, A96P

T4: human LAG-3 domain 1-2 Fc fusion, chimeric construct #28 (mutated region AA 84-90, cynomolgus backmutations) (human, UniProt P18627 23-266)
T4 construct: not shown: human IgG1 Fc, AA P101-K330
T4 chain: T1 sequence with P62H, H63R, S68Y, A96P

T5: human LAG-3 domain 1-2 Fc fusion, chimeric construct #9 (mutated region AA 66-71) (human, UniProt P18627 23-266)
T5 construct: not shown: human IgG1 Fc, AA P101-K330
T5 chain: T1 sequence with Q44R, G48D, P49Q, A96P

T6: human LAG-3 domain 1-2 Fc fusion, chimeric construct #2 (mutated region AA 29-30) (human, UniProt P18627 23-266)
T6 construct: not shown: human IgG1 Fc, AA P101-K330
T6 chain: T1 sequence with V7L, P8S, A96P

T7: human LAG-3 domain 1-2 Fc fusion, chimeric construct #6 (mutated region AA 48-55) (human, UniProt P18627 23-266)
T7 construct: not shown: human IgG1 Fc, AA P101-K330
T7 chain: T1 sequence with I26F, L28H, Q29L, L31P, S32N, L33F, A96P

T8: human LAG-3 domain 1-2 Fc fusion, chimeric construct #7 (mutated region AA 53-60) (human, UniProt P18627 23-266)
T8 construct: not shown: human IgG1 Fc, AA P101-K330
T8 chain: T1 sequence with L31P, S32N, L33F, A37G, G38W, A96P

T9: human LAG-3 domain 1-2 Fc fusion, chimeric construct #27 (mutated region AA 161-166) (human, UniProt P18627 23-266)
T9 construct: not shown: human IgG1 Fc, AA P101-K330
T9 chain: T1 sequence with A96P, R139S, L144V

B1: Fab fragment of antibody 15011 (Fab, V domains shown, not shown: a dimerising Fc or GST)
VH: EVQLLESGGGLVQPGGSLRLSCAASGFDFRSYAMMWVRQAPGKGLEWVGGINGEVGGSNTYYAPAVKGRATISRDNSKNTLYLQMNSLRAEDTAVYYCVKGAGACGICNDDIDAWGQGTLVTVSS
VL: SYELTQDPAVSVALGQTVRITCSGAGSYAGSYYYGWHQQKPGQAPVTVIYDNDKRPSNIPDRFSGSSSGNTASLTITGAQAEDEADYYCGSTNDNDDGGLFGSGTKVTVLG
notes: monomeric Fab made by GingisKHAN digestion of the IgG1
B2: Fab fragment of antibody 15572 (Fab, V domains shown, not shown: a dimerising Fc or GST)
VH: QLQLQESGPGLVKPSETLSLTCTVSGDSISSSSYYWGWIRQPPGKGLEWIGSIFYSGNTYYNPSLKSRVTISVDTSKNQFSLKLSSVTAADTAVYYCAREDDFLTDYYGAFDIWGQGTMVTVSS
VL: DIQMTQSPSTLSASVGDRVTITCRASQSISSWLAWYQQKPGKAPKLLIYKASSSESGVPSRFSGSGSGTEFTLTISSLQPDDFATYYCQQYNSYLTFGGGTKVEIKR
notes: as for B1
B3: Fab fragment of antibody 15532 (Fab, V domains shown, not shown: a dimerising Fc or GST)
VH: QVQLQQWGAGLLRPSETLSLTCAVYGESFSGYYWNWIRQPPGKGLEWIGEINHSGSTNYNPSLKSRVTISVDTSKTQFSLKLSSVTAADTAVYYCARGWDLLDWNDYWNEYWGQGTLVTVSS
VL: EIVLTQSPATLSLSPGERATLSCRASQSVSSYLAWYQQKPGQAPRLLIYDASNRATGIPARFSGSGSGTDFTLTISSLEPEDFAVYYCQQRSNWPLTFGGGTKVEIKR
notes: as for B1
B4: Fab fragment of antibody 15431 (Fab, V domains shown, not shown: a dimerising Fc or GST)
VH: QVQLQQSGPGLVKPSQTLSLTCAISGDSVSSNSAAWNWIRQSPSRGLEWLGRTYYRSKWYNDYAVSVKSRITINPDTSKNQFSLQLNSVTPEDTAVYYCARDDDWNDFDYWGQGTLVTVSS
VL: B3 VL
notes: as for B1

target: T1, human LAG-3 domain 1-2 Fc fusion, point …; experiment: SPR, Fab over captured mutant LAG-3-Fc;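 as to result: LAG-3 fusion proteins captured on an anti-human IgG Fc sensor chip and read on an IBIS MX96 biosensor, Fab association and dissociation each 15 min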

KD mutant/KD wild type [fold] | Binder
1.2 | B1
0.9 | B2
0.7 | B3
1 | B4

Target: T2, human LAG-3 domain 1-2 Fc fusion, …
Experiment: SPR, Fab over captured mutant LAG-3-Fc;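 as to result: LAG-3 fusion proteins captured on an anti-human IgG Fc sensor chip and read on an IBIS MX96 biosensor, Fab association and dissociation each 15 min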
Description: (§1) The LAG-3 fusion proteins were immobilized onto a G-a-hu-IgG Fc SensEye® (Ssens BV, The Netherlands) for 15 minutes using a Continuous Flow Microspotter (CFM, Wasatch Microfluidics, Salt Lake City, US). After spotting, the SensEye® was positioned in an IBIS MX96 biosensor and captured proteins were evaluated for binding affinity. […] Fab association was performed for 15 minutes and antigen dissociation was performed for 15 minutes. The recorded binding responses were fitted to a simple Langmuir 1:1 binding model with Scrubber 2 software for calculation of the on-rate (kon or ka), off-rate (koff or kd) and affinity (KD) constants.

KD mutant/KD wild type [fold] | Binder
0.5 | B1
0.8 | B2
1.3 | B3
0.6 | B4

Target: T3, human LAG-3 domain 1-2 Fc fusion, …
Experiment: SPR, Fab over captured mutant LAG-3-Fc;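 as to result: LAG-3 fusion proteins captured on an anti-human IgG Fc sensor chip and read on an IBIS MX96 biosensor, Fab association and dissociation each 15 min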
Description: as §1

KD mutant/KD wild type [fold] | Binder
0.6 | B1
0.5 | B2
1.5 | B3
0.4 | B4

Target: T4, human LAG-3 domain 1-2 Fc fusion, …
Experiment: SPR, Fab over captured mutant LAG-3-Fc;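 as to result: LAG-3 fusion proteins captured on an anti-human IgG Fc sensor chip and read on an IBIS MX96 biosensor, Fab association and dissociation each 15 min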
Description: as §1

KD mutant/KD wild type [fold] | Binder
0.6 | B1
0.5 | B2
4.8 | B3
1.1 | B4

Target: T5, human LAG-3 domain 1-2 Fc fusion, …
Experiment: SPR, Fab over captured mutant LAG-3-Fc
Description: as §1

KD mutant/KD wild type [fold] | Binder
0.7 | B1
1.1 | B2
3.9 | B3
0.4 | B4

Target: T6, human LAG-3 domain 1-2 Fc fusion, …
Experiment: SPR, Fab over captured mutant LAG-3-Fc
Description: as §1

KD mutant/KD wild type [fold] | binding result | Binder
0.5 | – | B1
– | no binding (tested: 300 nM) | B2
3.1 | – | B3
– | no binding (tested: 300 nM) | B4

Target: T7, human LAG-3 domain 1-2 Fc fusion, …
Experiment: SPR, Fab over captured mutant LAG-3-Fc
Description: as §1

KD mutant/KD wild type [fold] | binding result | Binder
0.5 | – | B1
– | no binding (tested: 300 nM) | B2
3.4 | – | B3
– | no binding (tested: 300 nM) | B4

Target: T8, human LAG-3 domain 1-2 Fc fusion, …
Experiment: SPR, Fab over captured mutant LAG-3-Fc
Description: as §1

KD mutant/KD wild type [fold] | binding result | Binder
0.5 | – | B1
– | no binding (tested: 300 nM) | B2
3.4 | – | B3
– | no binding (tested: 300 nM) | B4

Target: T9, human LAG-3 domain 1-2 Fc fusion, …
Experiment: SPR, Fab over captured mutant LAG-3-Fc
Description: as §1

KD mutant/KD wild type [fold] | Binder
2.3 | B1
1.7 | B2
0.8 | B3
1.3 | B4
